Data reported in patent US20040058406A1.

Assays:
[1] = molecular target: phosphorylated product of Flourescein-QSPKKG-CONH2 (after overnight incubation with ATP and CDK2); experiment: fluorescence polarization in a cuvette, 50 mM TAPS pH 9.0, large excess of poly-D-lysine; about 38 mP without polylysine
[2] = molecular target: Flourescein-QSPKKG-CONH2 (neutrally charged phosphorylatable CDK2 substrate); experiment: fluorescence polarization in a cuvette, 50 mM TAPS pH 9.0, poly-D-lysine added in aliquots; about 38 mP without polylysine
[3] = molecular target: phosphorylated product of Flourescein-QSPKKG-CONH2 (after overnight incubation with ATP and CDK2); experiment: as above

fluorescence polarization [1]: 100 mP | fluorescence polarization [2]: 42 mP | fluorescence polarization [3]: 72 mP
Substance: poly-D-Lysine
